Data: article PMC6160459, “Identification of Peptide Mimotope Ligands for Natalizumab” (Scientific Reports, 2018)
Each block holds one binder with its values, some of them ahead of it.

How the values were obtained:
[1] = target: Natalizumab; assay: peptide array variant scan, natalizumab binding in arbitrary ELISA units; settings: chain shown with the change;, read off a plot
[2] = target: Ntz-01 synthetic peptide; assay: BLI; Octet Red96; 10 µg/ml peptide immobilised on a streptavidin sensor; natalizumab in solution 1-600 nM, three-fold dilutions; TBS; apparent affinity
[3] = target: Ntz-02 synthetic peptide; assay: as above
[4] = target: Ntz-03 synthetic peptide; assay: as above
[5] = target: Ntz-04 synthetic peptide; assay: as above
[6] = target: Ntz-05 synthetic peptide; assay: as above
[7] = target: Ntz-06 synthetic peptide; assay: as above
[8] = target: Ntz-07 synthetic peptide; assay: as above
[9] = target: Ntz-06 synthetic peptide; assay: ELISA; Protocol-2: biotinylated peptide at 1 µg/ml in TBS on streptavidin-coated wells; natalizumab in 2.5% BSA/1X casein/TBST (or diluted human serum) 1 h at RT; detected with anti-IgG4-HRP; apparent affinity
[10] = target: Ntz-07 synthetic peptide; assay: as above

response ([1]; parent: est. 60): 2300 mAU
B1: Ntz-03 parent peptide on the Pepscan array N7S (peptide)
chain: ACPKNPSKFC

response ([1]; parent: est. 80): 1000 mAU
B3: Ntz-02 parent peptide on the Pepscan array S4Q (peptide)
chain: ACPQNPSKFC

response ([1]; parent: est. 80): 1900 mAU
B5: Ntz-02 parent peptide on the Pepscan array S4K (peptide)
chain: ACPKNPSKFC

Second part, the binder before the results:

B2: Ntz-01 parent peptide on the Pepscan array E6P (peptide)
chain: ACPMNPSKFC
response ([1]; parent: est. 1100): 1500 mAU

B4: Natalizumab (antibody, V domains shown)
VH: QVQLVQSGAEVKKPGASVKVSCKASGFNIKDTYIHWVRQAPGQRLEWMGRIDPANGYTKYDPKFQGRVTITADTSASTAYMELSSLRSEDTAVYYCAREGYYGNYGVYAMDYWGQGTLVTVSS
VL: DIQMTQSPSSLSASVGDRVTITCKTSQDINKYMAWYQQTPGKAPRLLIHYTSALQPGIPSRFSGSGSGRDYTFTISSLQPEDIATYYCLQYDNLWTFGQGTKVEIK
Kd [2]: 29.1 nM
Kd [3]: 32.1 nM
Kd [4]: 31.4 nM
Kd [5]: 6.03 nM
Kd [6]: 10.5 nM
Kd [7]: 6.87 nM
Kd [8]: 3.24 nM
fold improvement of apparent affinity over Ntz-01 [9]: 1.7 fold
fold improvement of apparent affinity over Ntz-02 [10]: 6.2 fold
fold improvement of apparent affinity over Ntz-03 [10]: 14 fold

B6: Ntz-01 parent peptide on the Pepscan array H4R (peptide)
chain: ACPRNESKFC
response ([1]; parent: est. 1100): 2400 mAU
